Test results as given in patent publication US20090186036A1.

Columns and labels:
[1] = biological target: soluble recombinant human αvβ6 (human) (UniProt P06756); assay: ELISA, coated hsαvβ6
[2] = biological target: soluble recombinant human αvβ6 (human) (UniProt P06756); assay: ELISA on plate-bound soluble αvβ6 in Mn (1 mM MnCl2) [panel B]
[3] = biological target: soluble recombinant human αvβ6 (human) (UniProt P06756); assay: KinExA, solution affinity for soluble αvβ6
[4] = biological target: soluble recombinant human αvβ6 (human) (UniProt P06756); assay: ELISA on plate-bound soluble αvβ6 in EDTA (10 mM) [panel B]
[5] = biological target: αvβ6 of human tumor cells and tissues (Detroit 562 cells, SCC-14 cells, carcinoma sections) (human) (UniProt P06756); assay: adhesion of Detroit562 cells to LAP, % binding; blocked ligand LAP [Detroit562 panel]
αvβ6 of human tumor cells and tissues (Detroit 562 cells, SCC-14 cells, carcinoma sections) (human), sequence (P06756 31-1048, chain 1 of 2): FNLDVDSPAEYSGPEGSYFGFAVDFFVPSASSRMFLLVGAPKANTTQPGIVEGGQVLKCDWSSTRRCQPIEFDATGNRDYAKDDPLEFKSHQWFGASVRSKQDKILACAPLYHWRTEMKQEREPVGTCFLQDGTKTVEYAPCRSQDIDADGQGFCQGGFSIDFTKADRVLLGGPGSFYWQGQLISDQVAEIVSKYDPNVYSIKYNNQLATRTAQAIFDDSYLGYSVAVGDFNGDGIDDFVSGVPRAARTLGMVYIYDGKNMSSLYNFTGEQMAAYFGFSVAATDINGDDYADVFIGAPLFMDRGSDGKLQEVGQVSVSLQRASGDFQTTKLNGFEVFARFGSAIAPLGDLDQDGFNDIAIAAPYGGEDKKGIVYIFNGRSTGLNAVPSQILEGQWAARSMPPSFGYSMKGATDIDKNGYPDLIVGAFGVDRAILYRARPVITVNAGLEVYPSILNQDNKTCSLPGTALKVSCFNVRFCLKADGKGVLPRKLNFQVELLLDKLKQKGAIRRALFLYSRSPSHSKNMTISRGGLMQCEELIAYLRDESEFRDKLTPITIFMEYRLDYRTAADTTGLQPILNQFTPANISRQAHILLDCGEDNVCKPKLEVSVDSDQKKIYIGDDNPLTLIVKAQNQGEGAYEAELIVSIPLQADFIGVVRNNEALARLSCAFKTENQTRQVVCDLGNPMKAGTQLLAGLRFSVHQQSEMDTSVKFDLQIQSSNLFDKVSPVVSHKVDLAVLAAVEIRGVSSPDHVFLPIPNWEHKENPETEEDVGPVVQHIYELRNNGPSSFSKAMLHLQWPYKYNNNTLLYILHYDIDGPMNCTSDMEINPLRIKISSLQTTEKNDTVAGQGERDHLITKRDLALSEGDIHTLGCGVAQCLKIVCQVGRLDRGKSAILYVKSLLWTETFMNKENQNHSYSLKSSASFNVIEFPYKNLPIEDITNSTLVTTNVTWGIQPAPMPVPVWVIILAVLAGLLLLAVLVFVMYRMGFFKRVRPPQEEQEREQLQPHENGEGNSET
αvβ6 of human tumor cells and tissues (Detroit 562 cells, SCC-14 cells, carcinoma sections) (human), sequence (P18564 22-788, chain 2 of 2, further chain): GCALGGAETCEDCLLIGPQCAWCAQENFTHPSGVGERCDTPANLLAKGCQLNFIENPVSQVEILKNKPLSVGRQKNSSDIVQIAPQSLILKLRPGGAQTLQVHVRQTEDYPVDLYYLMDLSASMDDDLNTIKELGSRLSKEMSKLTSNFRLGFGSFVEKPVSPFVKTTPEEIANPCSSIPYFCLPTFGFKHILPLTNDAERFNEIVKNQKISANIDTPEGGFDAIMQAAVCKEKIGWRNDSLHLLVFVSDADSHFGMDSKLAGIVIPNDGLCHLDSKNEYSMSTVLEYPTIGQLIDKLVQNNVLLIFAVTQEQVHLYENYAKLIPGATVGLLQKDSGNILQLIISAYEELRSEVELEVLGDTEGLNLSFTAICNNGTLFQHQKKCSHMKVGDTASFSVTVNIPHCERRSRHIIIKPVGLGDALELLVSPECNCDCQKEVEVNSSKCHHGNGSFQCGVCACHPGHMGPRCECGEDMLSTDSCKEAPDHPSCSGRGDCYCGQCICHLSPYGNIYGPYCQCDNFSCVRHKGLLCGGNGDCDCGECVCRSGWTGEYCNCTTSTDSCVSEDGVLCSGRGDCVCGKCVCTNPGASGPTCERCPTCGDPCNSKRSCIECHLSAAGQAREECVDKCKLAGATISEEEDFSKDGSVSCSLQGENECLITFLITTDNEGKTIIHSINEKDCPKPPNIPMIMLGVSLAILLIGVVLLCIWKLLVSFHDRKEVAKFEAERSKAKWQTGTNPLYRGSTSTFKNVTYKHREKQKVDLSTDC

[6] = biological target: αvβ6 on β6-transfected FDC-P1 cells (murine) (UniProt P43406); assay: β6-FDC-P1 cells to coated LAP, blocking
αvβ6 on β6-transfected FDC-P1 cells (murine), sequence (P43406 31-1044, chain 1 of 2): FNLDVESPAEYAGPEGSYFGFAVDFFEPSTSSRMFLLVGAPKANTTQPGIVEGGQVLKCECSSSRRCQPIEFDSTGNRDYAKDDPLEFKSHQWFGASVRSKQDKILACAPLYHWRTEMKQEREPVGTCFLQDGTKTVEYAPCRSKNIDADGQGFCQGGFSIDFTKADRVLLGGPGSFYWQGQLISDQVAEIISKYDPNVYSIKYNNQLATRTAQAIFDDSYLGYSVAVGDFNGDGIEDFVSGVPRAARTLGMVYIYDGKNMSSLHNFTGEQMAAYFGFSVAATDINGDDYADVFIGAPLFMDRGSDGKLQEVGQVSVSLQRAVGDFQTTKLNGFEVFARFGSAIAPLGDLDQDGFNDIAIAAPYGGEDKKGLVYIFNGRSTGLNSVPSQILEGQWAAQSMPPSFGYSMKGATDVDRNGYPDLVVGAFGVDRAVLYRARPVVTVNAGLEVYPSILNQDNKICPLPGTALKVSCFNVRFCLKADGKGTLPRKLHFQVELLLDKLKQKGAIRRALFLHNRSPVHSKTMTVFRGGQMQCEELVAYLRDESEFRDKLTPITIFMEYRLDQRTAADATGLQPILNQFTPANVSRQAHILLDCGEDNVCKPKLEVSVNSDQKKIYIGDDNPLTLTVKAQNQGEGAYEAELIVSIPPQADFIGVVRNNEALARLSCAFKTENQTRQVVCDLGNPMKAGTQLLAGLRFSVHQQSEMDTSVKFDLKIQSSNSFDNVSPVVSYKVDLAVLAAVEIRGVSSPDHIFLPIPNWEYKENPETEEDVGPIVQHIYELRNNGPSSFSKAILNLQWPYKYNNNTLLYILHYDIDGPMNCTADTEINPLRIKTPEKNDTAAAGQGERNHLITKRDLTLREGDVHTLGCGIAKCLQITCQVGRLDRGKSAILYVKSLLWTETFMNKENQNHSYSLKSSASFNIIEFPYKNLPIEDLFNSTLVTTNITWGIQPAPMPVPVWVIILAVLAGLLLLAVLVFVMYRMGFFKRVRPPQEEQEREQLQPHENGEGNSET
αvβ6 on β6-transfected FDC-P1 cells (murine), sequence (Q9Z0T9 22-787, chain 2 of 2, further chain): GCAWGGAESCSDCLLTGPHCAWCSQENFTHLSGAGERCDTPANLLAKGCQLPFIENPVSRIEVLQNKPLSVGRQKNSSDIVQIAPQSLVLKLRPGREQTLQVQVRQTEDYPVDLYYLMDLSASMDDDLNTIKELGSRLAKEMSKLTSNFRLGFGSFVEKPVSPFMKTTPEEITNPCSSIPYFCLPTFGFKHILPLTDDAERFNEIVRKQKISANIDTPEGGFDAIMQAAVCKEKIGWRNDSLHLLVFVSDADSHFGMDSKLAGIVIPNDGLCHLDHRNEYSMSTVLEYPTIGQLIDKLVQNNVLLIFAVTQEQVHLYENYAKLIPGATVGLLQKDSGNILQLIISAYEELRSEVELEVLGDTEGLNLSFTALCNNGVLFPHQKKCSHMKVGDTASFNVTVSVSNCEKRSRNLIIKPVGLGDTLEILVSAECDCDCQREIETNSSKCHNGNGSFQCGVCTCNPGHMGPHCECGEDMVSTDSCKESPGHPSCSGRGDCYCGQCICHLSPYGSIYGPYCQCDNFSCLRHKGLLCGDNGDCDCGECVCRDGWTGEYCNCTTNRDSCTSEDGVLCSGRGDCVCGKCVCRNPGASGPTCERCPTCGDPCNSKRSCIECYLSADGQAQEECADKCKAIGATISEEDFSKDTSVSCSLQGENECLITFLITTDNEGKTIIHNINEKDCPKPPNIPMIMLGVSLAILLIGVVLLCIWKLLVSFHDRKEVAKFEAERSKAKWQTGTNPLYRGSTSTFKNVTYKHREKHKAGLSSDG

[7] = biological target: αvβ6 on β6-transfected SW480 cells (UniProt P06756); assay: adhesion of SW480β6 cells to LAP, % binding; blocked ligand LAP [SW480β6 panel]
αvβ6 on β6-transfected SW480 cells, sequence (P06756 31-1048, chain 1 of 2): as the sequence (P06756 31-1048, chain 1 of 2) above
αvβ6 on β6-transfected SW480 cells, sequence (P18564 22-788, chain 2 of 2, further chain): as the sequence (P18564 22-788, chain 2 of 2, further chain) above

[8] = biological target: soluble recombinant human αvβ6 (human) (UniProt P06756); assay: biotin-hsαvβ6 to coated LAP, blocking
[9] = biological target: αvβ6 on β6-transfected SW480 cells (UniProt P06756); assay: cell-based or functional assay
[10] = biological target: soluble recombinant human αvβ6 (human) (UniProt P06756); assay: ELISA on plate-bound soluble αvβ6 in Ca/Mg [panel B]
[11] = biological target: αvβ6 on β6-transfected FDC-P1 cells (murine) (UniProt P43406); assay: adhesion of labelled β6-transfected FDC-P1 cells to plate-bound LAP, % binding; blocked ligand LAP
[12] = biological target: soluble recombinant human αvβ6 (human) (UniProt P06756); assay: ELISA on plate-bound soluble αvβ6 in Ca/Mg [panel C]
[13] = biological target: soluble recombinant human αvβ6 (human) (UniProt P06756); assay: KinExA, solution affinity for soluble αvβ6, with CaCl2 and MgCl2
[14] = biological target: αvβ6 on β6-transfected FDC-P1 cells (murine) (UniProt P43406); assay: adhesion of labelled β6-transfected FDC-P1 cells to plate-bound LAP, % binding; blocked ligand LAP; remark: listed apart in the source
[15] = biological target: soluble recombinant human αvβ6 (human) (UniProt P06756); assay: ELISA on plate-bound soluble αvβ6 in Mn (1 mM MnCl2) [panel C]
[16] = biological target: αvβ6 on β6-transfected FDC-P1 cells (murine) (UniProt P43406); assay: adhesion of labelled β6-transfected FDC-P1 cells to plate-bound LAP, % binding; blocked ligand LAP; remark: listed apart in the source
[17] = biological target: soluble recombinant human αvβ6 (human) (UniProt P06756); assay: ELISA on plate-bound soluble αvβ6 in Mn (1 mM MnCl2) [panel F]
[18] = biological target: soluble recombinant human αvβ6 (human) (UniProt P06756); assay: ELISA on plate-bound soluble αvβ6 in Ca/Mg [panel F]
[19] = biological target: soluble recombinant human αvβ6 (human) (UniProt P06756); assay: ELISA on plate-bound soluble αvβ6 in EDTA (10 mM) [panel F]

Row | EC50 [1] | EC50 (read off the curve) [2] | Kd [3] | EC50 (read off the curve) [4] | IC50 (read off the curve) [5] | IC50 [6] | IC50 (read off the curve) [7] | IC50 [8] | PAI-1 luciferase IC50 [9] | EC50 (read off the curve) [10] | IC50 [11] | EC50 (read off the curve) [12] | Kd [13] | IC50 [14] | EC50 (read off the curve) [15] | IC50 [16] | EC50 (read off the curve) [17] | EC50 (read off the curve) [18] | EC50 (read off the curve) [19] | Substance
1 | 0.0767 µg/mL | 0.09 µg/mL | 0.0156 nM | 0.09 µg/mL | 0.04 µg/mL | 0.017 µg/mL | 0.03 µg/mL | 0.271 µg/mL | 0.375 µg/mL | 0.09 µg/mL |  |  |  |  |  |  |  |  |  | 6.3G9 (antibody)
2 | 0.0175 µg/mL |  |  |  |  | 0.023 µg/mL |  | 0.169 µg/mL | 0.312 µg/mL |  | 0.101 µg/mL | 0.02 µg/mL | 0.0228 nM | 0.061 µg/mL | 0.03 µg/mL | 0.083 µg/mL |  |  |  | 6.8G6 (antibody)
3 | 0.0271 µg/mL |  |  |  |  |  |  | 0.229 µg/mL |  |  |  |  |  |  |  |  | 0.01 µg/mL | 0.01 µg/mL | 0.01 µg/mL | L230 (antibody)
